Measurements published in the DeepSol protein solubility set.

Experiment: soluble on expression in E. coli; label from the status in PepcDB or PDB records

Sequence	soluble on expression in E. coli
MGSDKIHHHHHHMEAIQVASVKDNFVKTLEKIRKKHGVDIIALFAIRQSLAIHVINSADNPVSFSAGTIFNLTLTPLVEEFLFNVKTFENHPQKTRFALVENVQWELYIPVVFKEFPTGFVYVASKKKRDAEKTEGIIRDLQDFLKAHGLEYYFLEYSVVLDQLLTTVAILIDRLFSRVSRYTLNHIYNVAFWAEEIGKIVGLDEKRLAKLYLAGLLHDIGKVYIDERILNKEGRLTLQEYQEMKKHVDYSYNMVKDLMIWDIEDDVALWVVQHHEKFDGSGYPFGLKEEEITPEGRILKIADTLDAMLSPRSYRNPFPLDDVIKEIERLRGKDFDPLLADLTVDLLREKKESLGLFEGRILPATLIAGEGIHEGILRKNDGYHVFISDYV	not soluble
EQLPVLQTVPFAGSAEPVSLTRESVERSVGEANMQEQRKRVHAMLRDYELQLRINSDASQQDAHLTPDSE	not soluble
MTIQQAMHQMPGKPGRDAIAEGETPRKASSDEAGCPRNDSTPTGSGLLQAALTRDNLQLAFKQVRANKGAAGVDGLGIVETAEHLKTAWPGIRAQLLAGTYRPDPVRRVLIPKPGGGERKLGIPTVTDRLIQQALLQVLQPLLDPDFSNHSYGFRPERSAHQAVLAAQQYIHSGRQIVVDVDLEQFFDCVEHDVLIARLGRKVKDRDVLRLIRAYLNSGALIEGMVMTSTRGTPQGGPLSPLLANVVLDEVDKELERRGHCFVRYADDANVYVRSPKAGQRVMALLRRLYGRLGLRVNESKSAVASAFGRKFLGFSFWQSPKGEVKRRVALKALQVFKHRIRGLTPRSGGRSLPQVVENLRPYLLGWKAYFGLSQAPGLWKSLDGWIRRRLRAIQLKQWKTGKTTYRELRKLGANSDLAAAIASDSHRTWHNSAGLIHGVLTVAWFDRLGLPRLYLEHHHHHH	not soluble
MAINNSAQKFIARNRAPRVQIEYDVEIYGSEKKIELPFVMAVLADLAGKPREELPPVTDRKFLDIDIDNFNERMKAIAPRVAFAVPNTLTGEGQLMVDITLENMDDFSPAQIARKVDALNQLLEARTQLANLQTYMDGKAGAENLVNKLLQDPTLLKTLANAPKSAATQQDVSADNESAE	not soluble
MNRRMMLASAALLLAPLAAQAQTRDVSVTIYNSNLALVEDARPLDLKAGRQKLEFKDVSAAIRPETVSLSAPGVTILEQNFDYDLLTPDKLMEKAVGQKVKIVRTNPGDGKETTEVATVLAANQGVVLKIGDRIEVLRDDGVPTRVIFDKVPETLRARPTLSVSVEAAGAGTRQAKLSYLTSGLSWKADYVALFDEAKSTMDLQGWITLSNNSGTPFENARTQLVAGDVNQLNDGGYRSSRSPGMISAGTESGVGERVADYYVYPLPERTTIASNQNKQVGFLSAQGVTAKKVYEVREGWFTSQAEPTKAVVAIQFSNARLAGLGAQLPMGTMRVYMRDAAGDPKFVGENAIGHTPAGSELSIKTGEAFDVSGQATLVAESRVSKRLTRYEMKYLLRNAKDQPVTVELRQGGLGRDSTVKAESLKGRRIDAGTLGWSVPVPANGETVLTFTVETGWLEHHHHHH	soluble
MKIAGLKQLNTALKEAASGGFSRQASRWLEECGQDFLEIVQSELISTQTIDTEKLLSSFEKGAEDNLWIVQSGGLSLEVGTQLDYASFLNDGHWTSKQDVRWVPGRFQGSRFIYDPAASTGMALKRKWIPGTGYWDHALLLYEQLFEKSLESKLRQWLKKL	not soluble
MGVFTFQDEYTSTIAPAKLYKALVTDADIIIPKAVETIQSVEIVEGNGGPGTIKKLTFIEGGESKYVLHKIEAIDEANLGYNYSIVGGVGLPDTIEKISFETKLVEGANGGSIGKVTIKIETKGDAQPNEEEGKAAKARGDAFFKAIESYLSAHPDYN	soluble
MLVLRLFNTQKARLSQLPKASNEIVKDFISKLANAAGSRDKLSDCFTHDFQFFGCGYTVNKAPFVEKHLATPNPEPLIPKCSSFNGNDSKISFTASHQDGPRENIVDLVISREEKDSPWRLQSGKITNCP	not soluble
SNAAQQVQQPVAQQQVQQPAQQNTNTANAGGNQNQAAPVQNQPVAQPTDIDGTYTGQDDGDRITLVVTGTTGTWTELESDGDQKVKQVTFDSANQRMIIGDDVKIYTVNGNQIVVDDMDRDPSDQIVLTK	soluble
MIDITLPLTDIHRHLDGNIRAQTILDLGRQFNIALPAQTLETLIPHVQVTSTEPDLVSFLTKLDWGVKVLASLDACRRVAFENIEDAARNGLHYVELRFSPGYMAMAHQLPIAGVVEAVIDGVRDGCNTFGVEARLIGIMSRTFGEAACLQELDALLAHRENITALDLAGDELGFPGSLFLSHFNRARDAGWHITVHAGEAAGPESIWQAIRELGAERIGHGVKAVEDRALMDFLAQQRIGIESCLTSNIQTSTVASLADHPLKTFLEHGVLASLNTDDPAVQGVDIIHEYHVAAPAAGLSREQIRQAQINGLEIAFLSDSEKRALREKVAEA	not soluble
MPNIDNVFSIYAGQLELLRQNGLIERTGEYICPICLNSFNKEQLNKLSMEDAPQASLGGKKIAITCKKCNNTCGHETDIHLVNFITYLEEQEFLPGSNRRVKIFDDETTINANLEVGNTKELKMIIPNKINNPKALTNHLSKLTVGGIIDIQNHPLKIDMKKVSTAILKNAYIILFARFGYSFLLNSFYDRIREQILNPAKHIIPESLWTKQTSISVKDGIYFSNSNVYRGFFIIYSLTKLRTHHFCICIPTPQVYFEAIAYYFREYKAGIPIYMMGSDGIDYFQNIDNIKALNKWLVNWSLGSPV	not soluble
MSLKSGTLRVWLFQEVNNKPKEKVVDAALADFEKAHADTKVTVEYIPVETRAQRIKAAFNDPKSAPDVVEFGNTDTAGYVKDGGLADISEEFAAWDEAKDADSTARQSVTVDGKVYGAPYFVGVRALYYRTDVFDELGLKAPRTLAELASTAKRVRAAKPDLYGLAVGGAYTYGAMPFIWANGGDIATGKGGSYASAIDSAAAQKGIKAYTSLFGDANCPAAKCAGMTGNDTVTAFASGKAAMAIGGDFSHQAMEAGAVKGKYAVVPLPGVEPGSIAPAFAGGNNIGVLKSTSHRTLAVDLMKRLASKKAQGELFDAMGFLPTFTDVRQQVAAREPFVKPFVDTLAAGTKFVPASPAWATIDSSLVLPTMFQEVVSGKKDVGAAAGDAARKMDDAFGSAGEGHHHHHH	soluble
MSLRTMLTQKFVVDSMLGKIARWLRIMGYDTLYSNDFEDWKILKIAETQKRIIITRDRGIYYRSLKRGLNCILLSPDSNIIQDLAFIALRSKIDLSVNINATRCPQCNSVLSKLSESMWLCPKCKKEYWKGRHWRTIEEIIIKANSELVKLETKNDSRGTGTDTGVKRRDRTVTNRNSEGHHHHHH	soluble
